Assay [1] addresses recombinant lectin domain of FimH with FLAG tag (rFimHLD-FLAG), P08191. Description: western blot quantification of rFimHLD-FLAG bound to rPPAP-HA. Conditions: chain shown with the change; n = 3 biological replicates; parent: est. 1.0; read off a plot. In general terms: In western blotting, separated proteins are transferred to a membrane and probed.
The target in assay [2] is full-length FimH adhesin on live WT UPEC UTI89 bacteria, P08191. Briefly: binding array (rPPAP bound to glass slide, incubated with live bacteria). Conditions: chain shown with the change, n = 3 biological replicates.
Sequence of full-length FimH adhesin on live WT UPEC UTI89 bacteria, P08191 (P08191 22-300): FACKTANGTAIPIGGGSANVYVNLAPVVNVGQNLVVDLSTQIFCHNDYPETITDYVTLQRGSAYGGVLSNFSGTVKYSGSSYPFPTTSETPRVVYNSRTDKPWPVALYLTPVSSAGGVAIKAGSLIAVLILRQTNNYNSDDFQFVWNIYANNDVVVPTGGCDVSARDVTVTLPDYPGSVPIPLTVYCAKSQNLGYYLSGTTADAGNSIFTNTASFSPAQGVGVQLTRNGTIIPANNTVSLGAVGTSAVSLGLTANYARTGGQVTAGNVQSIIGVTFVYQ

Changes are numbered by the printed parent chain. Numbers in names are those of the source.

Sequence of recombinant lectin domain of FimH with FLAG tag (rFimHLD-FLAG), P08191 (P08191 22-156): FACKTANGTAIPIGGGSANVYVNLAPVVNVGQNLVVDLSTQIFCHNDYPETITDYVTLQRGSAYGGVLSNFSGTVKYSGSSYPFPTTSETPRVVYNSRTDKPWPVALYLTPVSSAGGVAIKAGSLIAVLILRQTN

B1: HA-tagged PPAP recombinant protein, isoform 2 (membrane protein), wild type (rPPAP-HA WT), P15309-2 N94A; N333A (protein)
chain: MRAAPLLLARAASLSLGFLFLLFFWLDRSVLAKELKFVTLVFRHGDRSPIDTFPTDPIKESSWPQGFGQLTQLGMEQHYELGEYIRKRYRKFLAESYKHEQVYIRSTDVDRTLMSAMTNLAALFPPEGVSIWNPILLWQPIPVHTVPLSEDQLLYLPFRNCPRFQELESETLKSEEFQKRLHPYKDFIATLGKLSGLHGQDLFGIWSKVYDPLYCESVHNFTLPSWATEDTMTKLRELSELSLLSLYGIHKQKEKSRLQGGVLVNEILNHMKRATQIPSYKKLIMYSAHDTTVSGLQMALDVYNGLLPPYASCHLTELYFEKGEYFVEMYYRAETQHEPYPLMLPGCSPSCPLERFAELVGPVIPQDWSTECMTTNSHQGTEDSTD
As to B1, the ratio to parent in assay [1] came to 0.5.

B2: HA-tagged PPAP recombinant protein, isoform 2 (membrane protein), wild type (rPPAP-HA WT), P15309-2 N94A; N220A (protein)
chain: B1 chain with N220A, A333N
With B2, the ratio to parent in assay [1] was found to be 0.53.

B3: HA-tagged PPAP recombinant protein, isoform 2 (membrane protein), wild type (rPPAP-HA WT), P15309-2 N94A; N220A; N333A (protein)
chain: KELKFVTLVFRHGDRSPIDTFPTDPIKESSWPQGFGQLTQLGMEQHYELGEYIRKRYRKFLAESYKHEQVYIRSTDVDRTLMSAMTNLAALFPPEGVSIWNPILLWQPIPVHTVPLSEDQLLYLPFRNCPRFQELESETLKSEEFQKRLHPYKDFIATLGKLSGLHGQDLFGIWSKVYDPLYCESVHAFTLPSWATEDTMTKLRELSELSLLSLYGIHKQKEKSRLQGGVLVNEILNHMKRATQIPSYKKLIMYSAHDTTVSGLQMALDVYNGLLPPYASCHLTELYFEKGEYFVEMYYRAETQHEPYPLMLPGCSPSCPLERFAELVGPVIPQDWSTECMTTNSHQVLKVIFAVAFCLISAVLMVLLFIHIRRGLCWQRESYGNI
On to B3, for which the response (bacteria per field) in assay [2] (with D-mannose, parent: est. 18, read off a plot) came out at 13; in assay [2] (without D-mannose, parent: est. 66, read off a plot), 19. Besides, in assay [1], the ratio to parent was 0.36.

B4: HA-tagged PPAP recombinant protein, isoform 2 (membrane protein), wild type (rPPAP-HA WT), P15309-2 N333A (protein)
chain: B3 chain with A62N, A188N
For the molecule B4, in assay [1], the ratio to parent is 0.6.

B5: HA-tagged PPAP recombinant protein, isoform 2 (membrane protein), wild type (rPPAP-HA WT), P15309-2 N94A (protein)
chain: B3 chain with A188N, A301N
With B5, in assay [1], the ratio to parent came out at 0.78.

B6: HA-tagged PPAP recombinant protein, isoform 2 (membrane protein), wild type (rPPAP-HA WT), P15309-2 N220A (protein)
chain: B3 chain with A62N, A301N
For B6, the ratio to parent in assay [1] stood at 0.68.

B7: HA-tagged PPAP recombinant protein, isoform 2 (membrane protein), wild type (rPPAP-HA WT), P15309-2 N220A; N333A (protein)
chain: B3 chain with A62N
Turning to B7, the ratio to parent in assay [1] was 0.25.

The values above are taken from article PMC12872464.
